Experimental data reported in patent US20260242735A1 (UNIVERSIT T BASEL, published 2026).

Legend:
Test in all cases: flow cytometry, IgG on cells expressing the mutant
human CD33 variant K52T = human CD33 variant K52T (human, UniProt P20138 18-364)
human CD33 variant R122G = human CD33 variant R122G (human, UniProt P20138 18-364)
human CD33 variant I47E = human CD33 variant I47E (human, UniProt P20138 18-364)
human CD33 variant R122I = human CD33 variant R122I (human, UniProt P20138 18-364)
human CD33 variant K52I = human CD33 variant K52I (human, UniProt P20138 18-364)
Chain of human CD33 variant K52I (P20138 18-364 K52I limits assumed): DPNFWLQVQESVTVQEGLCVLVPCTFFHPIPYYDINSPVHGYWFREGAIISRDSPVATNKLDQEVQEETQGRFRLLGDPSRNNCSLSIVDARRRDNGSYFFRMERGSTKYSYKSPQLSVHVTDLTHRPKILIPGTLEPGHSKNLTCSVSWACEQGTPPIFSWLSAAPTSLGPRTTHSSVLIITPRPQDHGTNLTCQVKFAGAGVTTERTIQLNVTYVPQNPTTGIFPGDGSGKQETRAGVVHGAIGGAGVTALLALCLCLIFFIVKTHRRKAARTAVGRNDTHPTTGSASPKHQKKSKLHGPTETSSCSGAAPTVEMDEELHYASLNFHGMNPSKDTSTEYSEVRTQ

human CD33 variant I47Q = human CD33 variant I47Q (human, UniProt P20138 18-364)
human CD33 variant Y50Q = human CD33 variant Y50Q (human, UniProt P20138 18-364)
human CD33 variant P48G = human CD33 variant P48G (human, UniProt P20138 18-364)
Chain of human CD33 variant P48G (P20138 18-364 P48G limits assumed): as the sequence (P20138 18-364 K52I limits assumed) above, with P31G, I35K counted along it

human CD33 variant Y50R = human CD33 variant Y50R (human, UniProt P20138 18-364)
Chain of human CD33 variant Y50R (P20138 18-364 Y50R limits assumed): as the sequence (P20138 18-364 K52I limits assumed) above, with Y33R, I35K counted along it

human CD33 variant Y50G = human CD33 variant Y50G (human, UniProt P20138 18-364)
human CD33 variant P48N = human CD33 variant P48N (human, UniProt P20138 18-364)
human CD33 variant P48M = human CD33 variant P48M (human, UniProt P20138 18-364)
Chain of human CD33 variant P48M (P20138 18-364 P48M limits assumed): as the sequence (P20138 18-364 K52I limits assumed) above, with P31M, I35K counted along it

human CD33 variant P48F = human CD33 variant P48F (human, UniProt P20138 18-364)
human CD33 variant Y127E = human CD33 variant Y127E (human, UniProt P20138 18-364)
human CD33 variant K52F = human CD33 variant K52F (human, UniProt P20138 18-364)
Chain of human CD33 variant K52F (P20138 18-364 K52F limits assumed): as the sequence (P20138 18-364 K52I limits assumed) above, with I35F counted along it

human CD33 variant R122E = human CD33 variant R122E (human, UniProt P20138 18-364)
human CD33 variant Y49Q = human CD33 variant Y49Q (human, UniProt P20138 18-364)
human CD33 variant I47N = human CD33 variant I47N (human, UniProt P20138 18-364)
Chain of human CD33 variant I47N (P20138 18-364 I47N limits assumed): as the sequence (P20138 18-364 K52I limits assumed) above, with I30N, I35K counted along it

human CD33 variant Y50I = human CD33 variant Y50I (human, UniProt P20138 18-364)
human CD33 variant Y50L = human CD33 variant Y50L (human, UniProt P20138 18-364)
Chain of human CD33 variant Y50L (P20138 18-364 Y50L limits assumed): as the sequence (P20138 18-364 K52I limits assumed) above, with Y33L, I35K counted along it

human CD33 variant D51K = human CD33 variant D51K (human, UniProt P20138 18-364)
Chain of human CD33 variant D51K (P20138 18-364 D51K limits assumed): as the sequence (P20138 18-364 K52I limits assumed) above, with D34K, I35K counted along it

human CD33 variant Y129S = human CD33 variant Y129S (human, UniProt P20138 18-364)
human CD33 variant R122T = human CD33 variant R122T (human, UniProt P20138 18-364)
human CD33 variant Y49P = human CD33 variant Y49P (human, UniProt P20138 18-364)
Chain of human CD33 variant Y49P (P20138 18-364 Y49P limits assumed): as the sequence (P20138 18-364 K52I limits assumed) above, with Y32P, I35K counted along it

human CD33 variant R122F = human CD33 variant R122F (human, UniProt P20138 18-364)
human CD33 variant I47R = human CD33 variant I47R (human, UniProt P20138 18-364)
Chain of human CD33 variant I47R (P20138 18-364 I47R limits assumed): as the sequence (P20138 18-364 K52I limits assumed) above, with I30R, I35K counted along it

human CD33 variant M120I = human CD33 variant M120I (human, UniProt P20138 18-364)
Chain of human CD33 variant M120I (P20138 18-364 M120I limits assumed): as the sequence (P20138 18-364 K52I limits assumed) above, with I35K, M103I counted along it

human CD33 variant Y49D = human CD33 variant Y49D (human, UniProt P20138 18-364)
Chain of human CD33 variant Y49D (P20138 18-364 Y49D limits assumed): as the sequence (P20138 18-364 K52I limits assumed) above, with Y32D, I35K counted along it

human CD33 variant Y50P = human CD33 variant Y50P (human, UniProt P20138 18-364)
human CD33 variant K52H = human CD33 variant K52H (human, UniProt P20138 18-364)
Chain of human CD33 variant K52H (P20138 18-364 K52H limits assumed): as the sequence (P20138 18-364 K52I limits assumed) above, with I35H counted along it

human CD33 variant K52Y = human CD33 variant K52Y (human, UniProt P20138 18-364)
human CD33 variant K52D = human CD33 variant K52D (human, UniProt P20138 18-364)
human CD33 variant Y49G = human CD33 variant Y49G (human, UniProt P20138 18-364)
human CD33 variant P48K = human CD33 variant P48K (human, UniProt P20138 18-364)
human CD33 variant V56R = human CD33 variant V56R (human, UniProt P20138 18-364)
human CD33 variant I47Y = human CD33 variant I47Y (human, UniProt P20138 18-364)

Chain of human CD33 variant I47E (P20138 18-364 I47E limits assumed): as the sequence (P20138 18-364 K52I limits assumed) above, with I30E, I35K counted along it

B1: Refmab #1 (antibody, human IgG1, V domains shown)
VH: EVQLVQSGAEVKKPGSSVKVSCKASGYTITDSNIHWVRQAPGQSLEWIGYIYPYNGGTDYNQKFKNRATLTVDNPTNTAYMELSSLRSEDTAFYYCVNGNPWLAYWGQGTLVTVSS
VL: DIQLTQSPSTLSASVGDRVTITCRASESLDNYGIRFLTWFQQKPGKAPKLLMYAASNQGSGVPSRFSGSGSGTEFTLTISSLQPDDFATYYCQQTKEVPWSFGQGTKVEVK
notes: Tested in IgG format; human IgG1 (Absolute Antibody hP67.6, Cat. No. Ab00283-10.0); also called hP67.6
Human CD33 variant K52T
  Mean % WT Binding: 102 % of WT
Human CD33 variant R122G
  Mean % WT Binding: 109 % of WT
Human CD33 variant I47E
  Mean % WT Binding: 101 % of WT
Human CD33 variant R122I
  Mean % WT Binding: 110 % of WT
Human CD33 variant K52I
  Mean % WT Binding: 89.2 % of WT
Human CD33 variant I47Q
  Mean % WT Binding: 104 % of WT
Human CD33 variant Y50Q
  Mean % WT Binding: 93.9 % of WT
Human CD33 variant P48G
  Mean % WT Binding: 95 % of WT
Human CD33 variant Y50R
  Mean % WT Binding: 94.1 % of WT
Human CD33 variant Y50G
  Mean % WT Binding: 92.8 % of WT
Human CD33 variant P48N
  Mean % WT Binding: 100 % of WT
Human CD33 variant P48M
  Mean % WT Binding: 110 % of WT
Human CD33 variant P48F
  Mean % WT Binding: 94.6 % of WT
Human CD33 variant Y127E
  Mean % WT Binding: 79.2 % of WT
Human CD33 variant K52F
  Mean % WT Binding: 4.5 % of WT
Human CD33 variant R122E
  Mean % WT Binding: 110 % of WT
Human CD33 variant Y49Q
  Mean % WT Binding: 105 % of WT
Human CD33 variant I47N
  Mean % WT Binding: 87.8 % of WT
Human CD33 variant Y50I
  Mean % WT Binding: 99.2 % of WT
Human CD33 variant Y50L
  Mean % WT Binding: 109 % of WT
Human CD33 variant D51K
  Mean % WT Binding: 90.7 % of WT
Human CD33 variant Y129S
  Mean % WT Binding: 68.7 % of WT
Human CD33 variant R122T
  Mean % WT Binding: 113 % of WT
Human CD33 variant Y49P
  Mean % WT Binding: 92.5 % of WT
Human CD33 variant R122F
  Mean % WT Binding: 110 % of WT
Human CD33 variant I47R
  Mean % WT Binding: 96.1 % of WT
Human CD33 variant M120I
  Mean % WT Binding: 96.6 % of WT
Human CD33 variant Y49D
  Mean % WT Binding: 93.4 % of WT
Human CD33 variant Y50P
  Mean % WT Binding: 98.1 % of WT
Human CD33 variant K52H
  Mean % WT Binding: 94.2 % of WT
Human CD33 variant K52Y
  Mean % WT Binding: 45 % of WT
Human CD33 variant K52D
  Mean % WT Binding: 101 % of WT
Human CD33 variant Y49G
  Mean % WT Binding: 107 % of WT
Human CD33 variant P48K
  Mean % WT Binding: 99.4 % of WT
Human CD33 variant V56R
  Mean % WT Binding: 98.5 % of WT
Human CD33 variant I47Y
  Mean % WT Binding: 110 % of WT

B2: Refmab #2 (antibody, human IgG1, V domains shown)
VH: QVQLVQSGAEVKKPGSSVKVSCKASGGTFSDYAISWVRQAPGQGLEWMGRIIPILGVADYAQKFQGRVTITADKSTRTAYMELSSLRSEDTAVYYCARNWADAFDIWGQGTMVTVSS
VL: DIQLTQSPSSLSASVGDRVTITCRASQGISSVLAWYQQKPGKAPKLLIYDASSLESGVPSRFSGSGSGTDFTLTISSLQPEDFATYYCQQFDSSITFGQGTKLEIK
notes: Tested in IgG format; human IgG1 Fc silent (PG-LALA)
Human CD33 variant K52T
  Mean % WT Binding: 120 % of WT
Human CD33 variant R122G
  Mean % WT Binding: 12.2 % of WT
Human CD33 variant I47E
  Mean % WT Binding: 0.5 % of WT
Human CD33 variant R122I
  Mean % WT Binding: 1.1 % of WT
Human CD33 variant K52I
  Mean % WT Binding: 86.8 % of WT
Human CD33 variant Y50Q
  Mean % WT Binding: 113 % of WT
Human CD33 variant P48G
  Mean % WT Binding: 80.8 % of WT
Human CD33 variant Y50R
  Mean % WT Binding: 109 % of WT
Human CD33 variant Y50G
  Mean % WT Binding: 104 % of WT
Human CD33 variant P48N
  Mean % WT Binding: 95.2 % of WT
Human CD33 variant P48M
  Mean % WT Binding: 87.5 % of WT
Human CD33 variant P48F
  Mean % WT Binding: 68.7 % of WT
Human CD33 variant Y127E
  Mean % WT Binding: 105 % of WT
Human CD33 variant K52F
  Mean % WT Binding: 3.9 % of WT
Human CD33 variant R122E
  Mean % WT Binding: 0.6 % of WT
Human CD33 variant Y49Q
  Mean % WT Binding: 17.4 % of WT
Human CD33 variant I47N
  Mean % WT Binding: 0.4 % of WT
Human CD33 variant Y50I
  Mean % WT Binding: 126 % of WT
Human CD33 variant Y50L
  Mean % WT Binding: 119 % of WT
Human CD33 variant D51K
  Mean % WT Binding: 2.7 % of WT
Human CD33 variant Y129S
  Mean % WT Binding: 102 % of WT
Human CD33 variant R122T
  Mean % WT Binding: 1.5 % of WT
Human CD33 variant Y49P
  Mean % WT Binding: 6.9 % of WT
Human CD33 variant R122F
  Mean % WT Binding: 1.2 % of WT
Human CD33 variant I47R
  Mean % WT Binding: 1.6 % of WT
Human CD33 variant M120I
  Mean % WT Binding: 95.7 % of WT
Human CD33 variant Y49D
  Mean % WT Binding: 1.4 % of WT
Human CD33 variant Y50P
  Mean % WT Binding: 95.8 % of WT
Human CD33 variant K52H
  Mean % WT Binding: 84.7 % of WT
Human CD33 variant K52Y
  Mean % WT Binding: 21 % of WT
Human CD33 variant K52D
  Mean % WT Binding: 5.3 % of WT
Human CD33 variant P48K
  Mean % WT Binding: 106 % of WT
Human CD33 variant V56R
  Mean % WT Binding: 107 % of WT
Human CD33 variant I47Y
  Mean % WT Binding: 1.4 % of WT
